Changes are numbered by the printed parent chain. Numbers in names are those of the source.
B1: ipi.1 Fab (Fab, V domains shown)
VH: QVQLVESGGGVVQPGRSLRLSCAASGFTFSSYHMHWVRQAPGKGLEWVTFISYDGNNKYYADSVKGRFTISRDNSKNTLYLQMNSLRAEDTAIYYCARTGWLGPFDYWGQGTLVTVSS
VL: not shown
notes: Tested as monovalent Fab; also called T33H (Kabat)
B2: ipi.2 Fab (Fab, V domains shown)
VH: B1 VH with H33T, N57H
VL: not shown
notes: Tested as monovalent Fab; also called N56H (Kabat)
B3: ipi.17 Fab (Fab, V domains shown)
VH: B1 VH with H33T
VL: not shown
notes: Tested as monovalent Fab; also called S28E
B4: ipi.18 Fab (Fab, V domains shown)
VH: B1 VH with H33T
VL: not shown
notes: Tested as monovalent Fab; also called S31D
B5: ipi.25 Fab (Fab, V domains shown)
VH: B1 VH with H33T
VL: not shown
notes: Tested as monovalent Fab; also called LCDR1 S28E/S31D; LCDR1 S27aE/S30D (Kabat)
B6: ipi.57 Fab (Fab, V domains shown)
VH: B1 VH with S31H, H33T
VL: not shown
notes: Tested as monovalent Fab; also called HCDR1 S31H
B7: ipi.101 Fab (Fab, V domains shown)
VH: B1 VH with S31H, H33T, N56H
VL: not shown
notes: Tested as monovalent Fab
B8: ipi.105 Fab (Fab, V domains shown)
VH: B1 VH with S31H, H33T, N56H
VL: EIVLTQSPGTLSLSPGERATLSCRASQEVGESELAWYQQKPGQAPRLLIYGAFSRATGIPDRFSGSGSGTDFTLTISRLEPEDFAVYYCQQYGSSPWTFGQGTKVEIKR
notes: Tested as monovalent Fab

What was measured:
monomeric human CTLA-4 [1] = target: T1, monomeric human CTLA-4 (human, UniProt P16410 36-161, limits assumed); experiment: SPR, captured Fab, pH 6.0 vs 7.4
T1 construct: Soluble monomeric analyte in SPR; also called huCTLA-4
T1 sequence: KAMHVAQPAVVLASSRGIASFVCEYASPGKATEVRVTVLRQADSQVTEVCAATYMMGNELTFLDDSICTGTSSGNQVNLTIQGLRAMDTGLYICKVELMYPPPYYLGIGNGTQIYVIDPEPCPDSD
Experimental: (§1) Binding of selected variants to human CTLA-4 was determined essentially as described in Example 3. […] Nomenclature and sequences for these antibodies is provided at Tables 6 and 7, and in the sequence listing as summarized at Table 8.
(§2) Monomeric human CTLA-4 was flowed as analyte with up to 2 μM top concentration. Between cycles, the capture surface was regenerated with 75 mM phosphoric acid. Experiments were run on a BIACORE® T200 instrument at 37° C. Running buffers were HEPES buffered saline for pH 7.4 experiments and Bis-Tris buffered saline for lower pH experiments. […] Double referenced sensorgrams were fitted to a 1:1 Langmuir binding model with mass transport to determine equilibrium dissociation constants (KD), as well as association (kₐ) and dissociation (kd) rate constants where appropriate.

monomeric human CTLA-4 [2] = target: T1, monomeric human CTLA-4; experiment: SPR, captured Fab, pH 6.0
Experimental: (§3) Unless otherwise indicated, experiments were performed with a BIACORE® SPR surface plasmon resonance spectrometer (Biacore AB, Uppsala, Sweden). Antibodies were tested as monovalent Fab fragments to simplify analysis.
as §2

monomeric human CTLA-4 [3] = target: T1, monomeric human CTLA-4; experiment: SPR, captured Fab, pH 7.4
Experimental: as §3, §2

monomeric human CTLA-4 [4] = target: T1, monomeric human CTLA-4; experiment: SPR, captured Fab, pH 6.0; remark: listed apart in the source
Experimental: as §1, §2

monomeric human CTLA-4 [5] = target: T1, monomeric human CTLA-4; experiment: SPR, captured Fab, pH 6.0 vs 7.4; remark: listed apart in the source
Experimental: as §3, §2

monomeric human CTLA-4 [6] = target: T1, monomeric human CTLA-4; experiment: SPR, captured Fab, pH 7.4; remark: listed apart in the source
Experimental: as §1, §2

monomeric human CTLA-4 [7] = target: T1, monomeric human CTLA-4; experiment: SPR, captured Fab, pH 6.0 vs 7.4; remark: listed apart in the source
Experimental: (§4) See Example 3. Antibodies were tested as monovalent Fab fragments to simplify analysis.
as §2

monomeric human CTLA-4 [8] = target: T1, monomeric human CTLA-4; experiment: SPR, captured Fab, pH 6.0; remark: listed apart in the source
Experimental: as §4, §2

monomeric human CTLA-4 [9] = target: T1, monomeric human CTLA-4; experiment: SPR, captured Fab, pH 7.4; remark: listed apart in the source
Experimental: as §4, §2

monomeric human CTLA-4 [10] = target: T1, monomeric human CTLA-4; experiment: SPR, captured Fab, first experiment of Table 3
Experimental: as §4, §2

monomeric human CTLA-4 [11] = target: T1, monomeric human CTLA-4; experiment: SPR, captured Fab, pH 6.0, second experiment
Experimental: as §4, §2

monomeric human CTLA-4 [12] = target: T1, monomeric human CTLA-4; experiment: SPR, captured Fab, second experiment of Table 3
Experimental: as §4, §2

monomeric human CTLA-4 [13] = target: T1, monomeric human CTLA-4; experiment: SPR, pH 6.0 and pH 7.5 (FIG. 6)
Experimental: as §3, §2

monomeric human CTLA-4 [14] = target: T1, monomeric human CTLA-4; experiment: SPR, captured Fab, pH 6.0 vs 7.4, second experiment
Experimental: as §4, §2

monomeric human CTLA-4 [15] = target: T1, monomeric human CTLA-4; experiment: SPR, captured Fab, pH 7.4, second experiment
Experimental: as §4, §2

[16] = target: T2, human CTLA-4 on 58 α-β-CTLA-4/CD3 ζ cells (human; mouse (mCD3ζ)); experiment: flow cytometry (APC mean FI), Fab on 58αβ-CTLA4/mCD3ζ cells, pH 6.2
T2 construct: also called 58αβ-hCTLA4/mCD3ζ cells; 58αβ-CTLA4/mCD3ζ cells
Experimental: Antibodies were titrated from 100 μg/mL at a 1:4 dilution across 12 points in pH-specific buffers and incubated for 30-60 minutes. Buffers contained HBSS, 2% FBS^HI, 0.02% sodium azide, 2 mM EDTA, and sodium phosphate buffer (pH 5.4). Sodium phosphate buffer was added until desired pH was reached (7.2, 6.7, 6.2). Approximately 3e5 cells/well were tested for each cell line. […] Detection was done with a monovalent anti-hKappa secondary nanobody conjugated to Alexa647 and used at a dilution of 1:2000. Cells were fixed with BD Fix Solution I for 30 minutes prior to resuspension in pH-specific buffers and reading on the cytometer (BD Fortessa).
The experimental protocol was the same as used to obtain the data of FIGS. 16A-C.

monomeric cyno CTLA-4 = target: T3, monomeric cyno CTLA-4 (cynomolgus macaque (Macaca fascicularis), UniProt G7PL88 36-161); experiment: SPR, Fab, monomeric cyno CTLA-4 as analyte; koff (s^-1, linear axis 0 to 0.3) plotted against pH
T3 construct: also called CTLA-4 from the cynomolgus macaque Macaca fascicularis
T3 sequence: T1 sequence with S14N, I18T, L106M
Experimental: The pH dependence of binding of selected antibodies of the present invention to human CTLA-4 and cyno CTLA-4 was measured by surface plasmon resonance (SPR) spectroscopy, essentially as described in Example 3. Briefly, antibodies were studied as monovalent Fab fragments. Anti-human kappa polyclonal capture antibody (Southern Biotech, Ala. USA) was immobilized on a ethylenediamine-blocked CM4 sensor chip in a Biacore T200 surface plasmon resonance system. Fab fragments of selected antibodies of the present invention were then captured on one flow cell each. […] Running buffer was 20 mM BisTris, 150 mM NaCl, 0.05% Tween-20, 1 g/L BSA, at a pH ranging from 5.5 to 7.4 in 0.1-0.2 pH unit intervals (12 total). The surface was regenerated with 1/200 H₃PO₄ between cycles. […] Where required, the Rₘₐₓ was fixed by calculating expected binding based on capture level and apparent activity from other fits for the same Fab.

Binder	KD 7.4/6 (APBP) (monomeric human CTLA-4 [1])	ka 6/7.4 (monomeric human CTLA-4 [1])	t1/2 6/7.4 (monomeric human CTLA-4 [1])	Kd (monomeric human CTLA-4 [4]) [nM]	kon (monomeric human CTLA-4 [4]) [M⁻¹ s⁻¹]	t1/2 (monomeric human CTLA-4 [4]) [min]	Kd (monomeric human CTLA-4 [6]) [nM]	kon (monomeric human CTLA-4 [6]) [M⁻¹ s⁻¹]	t1/2 (monomeric human CTLA-4 [6]) [min]	KD 7.4/6 (APBP) (monomeric human CTLA-4 [7])	ka 6/7.4 (monomeric human CTLA-4 [7])	kd 7.4/6 (monomeric human CTLA-4 [7])	Kd (monomeric human CTLA-4 [8]) [nM]	koff (monomeric human CTLA-4 [8]) [s⁻¹]	kon (monomeric human CTLA-4 [8]) [M⁻¹ s⁻¹]	Kd (monomeric human CTLA-4 [9]) [nM]	koff (monomeric human CTLA-4 [9]) [s⁻¹]	kon (monomeric human CTLA-4 [9]) [M⁻¹ s⁻¹]	ratio of KD (7.4/6.0) normalized to the ratio of ipilimumab (monomeric human CTLA-4 [10])	also measured
B1	1.1	1.1	1	7.7	960000	1.57	8.6	840000	1.6											Kd (monomeric human CTLA-4 [2]): 20 nM; koff (monomeric human CTLA-4 [2]): 0.011 s⁻¹; kon (monomeric human CTLA-4 [2]): 560000 M⁻¹ s⁻¹; Kd (monomeric human CTLA-4 [3]): 17 nM; koff (monomeric human CTLA-4 [3]): 0.011 s⁻¹; kon (monomeric human CTLA-4 [3]): 650000 M⁻¹ s⁻¹; KD 7.4/6 (APBP) (monomeric human CTLA-4 [5]): 1.2
B2	0.9	1.4	0.6	6.8	1.2e+06	1.38	5.8	880000	2.27											Kd (monomeric human CTLA-4 [2]): 13 nM; koff (monomeric human CTLA-4 [2]): 0.0065 s⁻¹; kon (monomeric human CTLA-4 [2]): 490000 M⁻¹ s⁻¹; Kd (monomeric human CTLA-4 [3]): 16 nM; koff (monomeric human CTLA-4 [3]): 0.011 s⁻¹; kon (monomeric human CTLA-4 [3]): 670000 M⁻¹ s⁻¹; KD 7.4/6 (APBP) (monomeric human CTLA-4 [5]): 0.8
B3	1.3	1.2	1.1	14	1e+06	0.767	19	850000	0.717	1.4	1.2	1.1	14	0.015	1e+06	19	0.016	850000	1.4	
B4	3.1	1.7	1.9	8.8	1.1e+06	1.25	28	640000	0.65	3.2	1.7	1.9	8.8	0.0093	1.1e+06	28	0.018	640000	3.2	
B5	4.1	1.7	2.4	6.2	1.2e+06	1.5	25	720000	0.65	4	1.7	2.3	6.2	0.0077	1.2e+06	25	0.018	720000	4	Kd (monomeric human CTLA-4 [11]): 7.4 nM; koff (monomeric human CTLA-4 [11]): 0.0074 s⁻¹; kon (monomeric human CTLA-4 [11]): 1e+06 M⁻¹ s⁻¹; ratio of KD (7.4/6.0) normalized to the ratio of ipilimumab (monomeric human CTLA-4 [12]): 6.3; CAPBP (ratio of KD normalized to ipilimumab) (monomeric human CTLA-4 [13]): 6.3; KD 7.4/6 (APBP) (monomeric human CTLA-4 [14]): 5; ka 6/7.4 (monomeric human CTLA-4 [14]): 2.2; kd 7.4/6 (monomeric human CTLA-4 [14]): 2.3; Kd (monomeric human CTLA-4 [15]): 37 nM; koff (monomeric human CTLA-4 [15]): 0.017 s⁻¹; kon (monomeric human CTLA-4 [15]): 460000 M⁻¹ s⁻¹
B6	3.5	1.3	2.7	7.9	1.1e+06	1.38	28	800000	0.533											CAPBP (ratio of KD normalized to ipilimumab) (monomeric human CTLA-4 [13]): 5.5
B7	31	2.5	12	1.5	1.2e+06	6.42	45	490000	0.533											EC50 (read off the curve) [16]: ~0.07 µg/mL; binding result (monomeric cyno CTLA-4): binds
B8	76			2.5	1.3e+06	3.62	390													EC50 (read off the curve) [16]: ~0.2 µg/mL; binding result (monomeric cyno CTLA-4): binds

From US20220193237A1 (Bristol-Myers Squibb, published 2022)
